Columns and labels:
Test in all cases: SEC-MALS
6×His-SYP-3 (C. elegans) = 6×His-SYP-3 (C. elegans) (UniProt O62238)
SEC-MALS = molecular target: the molecule itself
6×His-SYP-3 = molecular target: T1, 6×His-SYP-3 (C. elegans, UniProt O62238 1-224)
T1 sequence: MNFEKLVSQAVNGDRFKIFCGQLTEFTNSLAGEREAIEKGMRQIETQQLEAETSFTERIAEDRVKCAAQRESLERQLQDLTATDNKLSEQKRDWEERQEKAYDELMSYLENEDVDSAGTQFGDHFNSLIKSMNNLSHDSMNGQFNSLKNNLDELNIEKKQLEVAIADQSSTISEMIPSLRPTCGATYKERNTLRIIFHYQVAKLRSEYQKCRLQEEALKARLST

Molecule: SYP-5 (recombinant, untagged) (natural protein)
- stoichiometry N (copies of each protein in the complex) (6×His-SYP-3 (C. elegans)): 4

Molecule: SYP-1 (recombinant, untagged) (natural protein)
- stoichiometry N (copies of each protein in the complex) (6×His-SYP-3 (C. elegans)): 4

B1: 6×His-SKR-1^WT (natural protein)
chain: MADQKKVSEAAKEREIKISSSDNEIFLVPRNVIRLSNTINTLLMDLGLDDEEGTNAEPIPVQNVTASILKKVISWCNHHHSDPISTEDSDNREKRTDDIGSWDVEFLKVDQGTLFELILAANYLDIKGLLDVTCKTVANMIKGKSPEEIRRTFNIKNDFTPEEEEQIRKENAWCED
- stoichiometry N (SEC-MALS): 2

B2: 6×His-SKR-1^I155A,W173A (natural protein)
chain: MADQKKVSEAAKEREIKISSSDNEIFLVPRNVIRLSNTINTLLMDLGLDDEEGTNAEPIPVQNVTASILKKVISWCNHHHSDPISTEDSDNREKRTDDIGSWDVEFLKVDQGTLFELILAANYLDIKGLLDVTCKTVANMIKGKSPEEIRRTFNAKNDFTPEEEEQIRKENAACED
- stoichiometry N (SEC-MALS): 2

B3: SYP-2 (recombinant, untagged) (natural protein)
chain: MNSAHRSSLKKRPGPQDDRRVSFASPVSSSQKTAAVTVAAQTKQPAKAKNLRTMHSTPKKSKPAHDVADIISLVSKQSDILDDVSEIEHKMIKQAKMTQDLTMELANSIERIANMALAESKLSDQMEKQSKKLISLEGKTKELVEKANNWSKTLENRVDARSHHSTCLNDVQAAIKIINNAKINNDGFSEDFSAHYDKLLDLVETLEPWADKL
- stoichiometry N (6×His-SYP-3): 4 copies of each protein in the complex

B4: SYP-4 (recombinant, untagged) (natural protein)
chain: MSFPTLQVRPNEKNPKVLRCHEFLRQSNQLVERNMINTEGRKMLAKLLTKMVSEAKGIYALDERRAELAKSGKLQEKLKSAYQTSLTVMEDRLHIAELSRQVQEKKLTVQQKYYECDDLRKSVQETNTEARRVQEINEQRLVDTTRATEELIVKSASILKNLENSSDVHKLRAMEEEKRILEEVVEGLRDQKKCLADDIRTKKATLKAESKKSFEKTVIECAKHYKLHQSLMPKLDKSKRSLETLKDEEENRRICGSLSLDETMQFDRSFILASMDKTNKPEKAVQQLTSKSSEVSITPQISETAKSSFSKEPIPTQHPMEVGEEPVIEHSAEESVHIEPPNVTEIREVVPQITIQPTRQDSVVQRDAEELDTSAVPSPQPESILDEPEEEEEELSNHENHADQSMDVMEVDQEVPEESPMEVGEQEEIEQPSVFKDILATEQAALSQEQEPEIVEKQADNDVQFVDDQQVGAQLDVEDEEEVMSENGSNKSNNFSFNFFGNSKGTSAGEGGGEGNFDFNFDGIGAGDDGSNNGGSTGDLDFLNYDGEDEGKGSGNTQSDPFGFASNGNAAGGGGDGSFNFNFDGDGEGGATSGAGGNSTSFFNF
- stoichiometry N (6×His-SYP-3): 4 copies of each protein in the complex

B5: SKR-1 (recombinant, untagged) (natural protein)
chain: MADQKKVSEAAKEREIKISSSDNEIFLVPRNVIRLSNTINTLLMDLGLDDEEGTNAEPIPVQNVTASILKKVISWCNHHHSDPISTEDSDNREKRTDDIGSWDVEFLKVDQGTLFELILAANYLDIKGLLDVTCKTVANMIKGKSPEEIRRTFNIKNDFTPEEEEQIRKENAWCED
- stoichiometry N (6×His-SYP-3): 4 copies of each protein in the complex

Reference: publication PMC10866564 (Science Advances, 2024)
